PMC3146532, “Multiple ATR-Chk1 Pathway Proteins Preferentially Associate with Checkpoint-Inducing DNA Substrates”

Key:
RPA (heterotrimer) = RPA (heterotrimer) (UniProt P27694;P15927;P35244 1-616;1-270;1-121); test: pull-down; up to 10-fold more than dsDNA; 10 mM Tris pH 7.4, 50 mM NaCl (oligo DNA) or 100 mM NaCl (plasmid; 200/300 mM for TopBP1 salt series), 10 ug/ml BSA, 10% glycerol, 0.01% NP-40, room temperature, 30 min; bead pull-down with immunoblot; settings: protein: recombinant, copies: 1;1;1
FAAP24-His = biological target: T1, FAAP24-His (UniProt Q9BTP7 1-215); test: pull-down; 10 mM Tris pH 7.4, 50 mM NaCl (oligo DNA) or 100 mM NaCl (plasmid; 200/300 mM for TopBP1 salt series), 10 ug/ml BSA, 10% glycerol, 0.01% NP-40, room temperature, 30 min; bead pull-down with immunoblot; settings: protein: recombinant, tags: His (pET21b)
T1 sequence: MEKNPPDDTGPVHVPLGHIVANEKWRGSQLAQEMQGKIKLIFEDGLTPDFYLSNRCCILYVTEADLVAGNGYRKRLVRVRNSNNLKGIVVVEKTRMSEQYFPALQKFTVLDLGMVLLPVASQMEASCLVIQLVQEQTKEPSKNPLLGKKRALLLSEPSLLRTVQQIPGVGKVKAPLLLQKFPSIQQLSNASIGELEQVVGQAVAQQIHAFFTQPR

His-Chk1 = biological target: T2, His-Chk1 (UniProt O14757 1-476); test: as above; settings: protein: recombinant, tags: His
T2 sequence: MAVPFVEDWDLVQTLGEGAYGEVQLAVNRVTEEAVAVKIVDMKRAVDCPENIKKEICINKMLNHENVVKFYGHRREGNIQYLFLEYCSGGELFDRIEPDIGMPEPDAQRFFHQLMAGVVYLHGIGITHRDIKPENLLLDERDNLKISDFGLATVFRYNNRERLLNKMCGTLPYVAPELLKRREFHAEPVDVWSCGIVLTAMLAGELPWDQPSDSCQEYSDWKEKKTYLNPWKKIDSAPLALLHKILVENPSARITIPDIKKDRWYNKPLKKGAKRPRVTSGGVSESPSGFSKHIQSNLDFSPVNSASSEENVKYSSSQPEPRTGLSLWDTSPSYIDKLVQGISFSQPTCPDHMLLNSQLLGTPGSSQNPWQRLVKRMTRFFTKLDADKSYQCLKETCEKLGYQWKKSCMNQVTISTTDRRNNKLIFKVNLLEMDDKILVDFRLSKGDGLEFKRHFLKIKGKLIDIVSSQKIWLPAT

Tipin-His = biological target: T3, Tipin-His (UniProt Q9BVW5 1-301); test: pull-down; >10-fold over ssDNA or dsDNA at highest protein; 10 mM Tris pH 7.4, 50 mM NaCl (oligo DNA) or 100 mM NaCl (plasmid; 200/300 mM for TopBP1 salt series), 10 ug/ml BSA, 10% glycerol, 0.01% NP-40, room temperature, 30 min; bead pull-down with immunoblot; settings: protein: recombinant; tags: His; label: 5'-biotin on Oligo1; fork 1:2; 31 bp duplex, two 19 nt unpaired arms (3' of Oligo1, 5' of Oligo2)
T3 sequence: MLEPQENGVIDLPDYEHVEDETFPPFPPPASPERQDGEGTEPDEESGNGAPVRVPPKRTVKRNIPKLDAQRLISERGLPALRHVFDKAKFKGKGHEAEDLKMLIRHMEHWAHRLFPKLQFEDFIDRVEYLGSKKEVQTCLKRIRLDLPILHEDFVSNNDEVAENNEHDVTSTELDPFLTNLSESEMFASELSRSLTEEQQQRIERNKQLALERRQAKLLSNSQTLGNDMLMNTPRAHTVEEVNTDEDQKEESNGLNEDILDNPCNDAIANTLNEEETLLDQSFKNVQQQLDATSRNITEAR

FLAG-Timeless;Tipin-His = FLAG-Timeless;Tipin-His (human?;human?, UniProt Q9UNS1;Q9BVW5 1-1208;1-301, |); test: pull-down; 10 mM Tris pH 7.4, 50 mM NaCl (oligo DNA) or 100 mM NaCl (plasmid; 200/300 mM for TopBP1 salt series), 10 ug/ml BSA, 10% glycerol, 0.01% NP-40, room temperature, 30 min; bead pull-down with immunoblot; settings: protein: recombinant;recombinant; tags: FLAG;His; copies: 1;1; label: 5'-biotin on Oligo1; fork 1:2; 31 bp duplex, two 19 nt unpaired arms (3' of Oligo1, 5' of Oligo2)
MBP-XPA = MBP-XPA (UniProt P23025 1-273); test: as above; settings: protein: recombinant; tags: MBP; label: 5'-biotin on Oligo1; fork 1:2; 31 bp duplex, two 19 nt unpaired arms (3' of Oligo1, 5' of Oligo2)
FLAG-Claspin = FLAG-Claspin (UniProt Q9HAW4 1-1339); test: as above; settings: protein: recombinant; tags: FLAG; label: 5'-biotin on Oligo1; fork 1:2; 31 bp duplex, two 19 nt unpaired arms (3' of Oligo1, 5' of Oligo2)
FLAG-Timeless = FLAG-Timeless (UniProt Q9UNS1 1-1208); test: as above; settings: protein: recombinant; tags: FLAG; label: 5'-biotin on Oligo1; fork 1:2; 31 bp duplex, two 19 nt unpaired arms (3' of Oligo1, 5' of Oligo2)
[1] = biological target: T4, 9-1-1 complex (FLAG-Rad9-Hus1-Rad1) (UniProt Q99638;O60921;O60671 1-391;1-280;1-282); test: as above; settings: protein: recombinant; tags: FLAG on Rad9; copies: 1;1;1; label: 5'-biotin on Oligo1; fork 1:2; 31 bp duplex, two 19 nt unpaired arms (3' of Oligo1, 5' of Oligo2)
T4 sequence 1: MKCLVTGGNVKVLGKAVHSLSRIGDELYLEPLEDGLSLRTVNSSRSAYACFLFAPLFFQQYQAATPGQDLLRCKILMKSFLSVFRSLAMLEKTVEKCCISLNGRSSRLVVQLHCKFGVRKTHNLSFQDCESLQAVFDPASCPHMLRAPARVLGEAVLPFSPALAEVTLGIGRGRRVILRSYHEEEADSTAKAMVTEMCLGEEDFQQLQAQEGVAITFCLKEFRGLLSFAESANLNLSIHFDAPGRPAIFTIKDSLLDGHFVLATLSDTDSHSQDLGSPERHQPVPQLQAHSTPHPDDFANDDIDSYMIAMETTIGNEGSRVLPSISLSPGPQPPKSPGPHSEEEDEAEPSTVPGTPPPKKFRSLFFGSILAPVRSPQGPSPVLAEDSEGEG
T4 sequence 2: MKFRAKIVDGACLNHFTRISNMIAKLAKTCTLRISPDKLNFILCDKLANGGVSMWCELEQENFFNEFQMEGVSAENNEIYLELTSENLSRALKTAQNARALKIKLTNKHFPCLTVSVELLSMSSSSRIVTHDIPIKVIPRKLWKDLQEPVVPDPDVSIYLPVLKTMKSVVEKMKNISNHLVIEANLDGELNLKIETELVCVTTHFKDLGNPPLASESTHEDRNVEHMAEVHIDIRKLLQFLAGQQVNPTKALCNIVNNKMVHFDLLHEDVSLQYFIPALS
T4 sequence 3: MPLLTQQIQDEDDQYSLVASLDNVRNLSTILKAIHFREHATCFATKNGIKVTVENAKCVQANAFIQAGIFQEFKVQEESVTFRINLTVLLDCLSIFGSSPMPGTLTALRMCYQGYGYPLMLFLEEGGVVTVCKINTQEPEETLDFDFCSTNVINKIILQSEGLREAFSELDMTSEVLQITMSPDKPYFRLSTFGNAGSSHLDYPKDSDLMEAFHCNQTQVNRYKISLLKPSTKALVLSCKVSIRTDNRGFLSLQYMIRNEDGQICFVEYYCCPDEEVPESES

FLAG-ATRIP = biological target: T5, FLAG-ATRIP (UniProt Q8WXE1 1-791); test: pull-down; without RPA; 10 mM Tris pH 7.4, 50 mM NaCl (oligo DNA) or 100 mM NaCl (plasmid; 200/300 mM for TopBP1 salt series), 10 ug/ml BSA, 10% glycerol, 0.01% NP-40, room temperature, 30 min; bead pull-down with immunoblot; settings: protein: recombinant; tags: FLAG; label: 5'-biotin on Oligo1; fork 1:2; 31 bp duplex, two 19 nt unpaired arms (3' of Oligo1, 5' of Oligo2)
T5 sequence: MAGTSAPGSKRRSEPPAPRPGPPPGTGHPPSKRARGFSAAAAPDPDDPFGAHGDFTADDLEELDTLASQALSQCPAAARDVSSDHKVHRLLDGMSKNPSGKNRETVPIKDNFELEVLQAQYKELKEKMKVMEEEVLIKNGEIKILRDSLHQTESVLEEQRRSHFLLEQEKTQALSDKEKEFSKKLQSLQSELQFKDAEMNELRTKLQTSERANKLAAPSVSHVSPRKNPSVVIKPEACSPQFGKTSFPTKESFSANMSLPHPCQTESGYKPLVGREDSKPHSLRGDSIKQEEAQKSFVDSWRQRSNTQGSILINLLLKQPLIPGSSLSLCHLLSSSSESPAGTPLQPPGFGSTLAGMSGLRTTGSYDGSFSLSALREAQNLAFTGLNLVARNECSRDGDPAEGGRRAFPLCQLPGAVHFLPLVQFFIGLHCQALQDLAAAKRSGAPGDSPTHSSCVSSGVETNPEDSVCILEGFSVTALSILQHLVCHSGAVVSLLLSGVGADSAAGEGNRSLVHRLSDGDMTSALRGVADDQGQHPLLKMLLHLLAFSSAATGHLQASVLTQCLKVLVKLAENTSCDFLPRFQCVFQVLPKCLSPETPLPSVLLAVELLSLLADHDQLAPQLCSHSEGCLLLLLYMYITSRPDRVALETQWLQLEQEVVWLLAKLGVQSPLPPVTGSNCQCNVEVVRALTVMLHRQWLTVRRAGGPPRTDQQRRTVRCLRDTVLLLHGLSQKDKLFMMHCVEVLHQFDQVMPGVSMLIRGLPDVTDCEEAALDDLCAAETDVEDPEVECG

[2] = label: 5'-biotin on Oligo1, fork 1:2, 31 bp duplex, two 19 nt unpaired arms (3' of Oligo1, 5' of Oligo2)

Measured: binding result

Chain of RPA (heterotrimer) (P27694 whole entry, chain 1 of 3, the tested form may be a part): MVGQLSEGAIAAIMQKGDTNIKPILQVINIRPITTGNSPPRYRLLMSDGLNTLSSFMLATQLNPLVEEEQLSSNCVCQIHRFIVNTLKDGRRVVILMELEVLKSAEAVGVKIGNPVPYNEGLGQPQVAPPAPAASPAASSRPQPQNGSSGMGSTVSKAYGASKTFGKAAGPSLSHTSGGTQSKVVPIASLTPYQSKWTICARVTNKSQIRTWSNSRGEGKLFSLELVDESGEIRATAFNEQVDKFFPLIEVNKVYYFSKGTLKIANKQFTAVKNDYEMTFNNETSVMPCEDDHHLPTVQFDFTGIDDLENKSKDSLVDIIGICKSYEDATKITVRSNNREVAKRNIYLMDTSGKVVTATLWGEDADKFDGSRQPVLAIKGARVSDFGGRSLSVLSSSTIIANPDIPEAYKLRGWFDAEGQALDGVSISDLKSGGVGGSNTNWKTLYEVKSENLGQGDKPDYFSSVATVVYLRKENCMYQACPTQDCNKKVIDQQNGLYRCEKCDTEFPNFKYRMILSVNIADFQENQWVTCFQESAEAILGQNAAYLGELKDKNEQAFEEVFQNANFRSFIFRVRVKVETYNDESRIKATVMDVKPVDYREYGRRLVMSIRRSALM
Chain of RPA (heterotrimer) (P15927 whole entry, chain 2 of 3, the tested form may be a part): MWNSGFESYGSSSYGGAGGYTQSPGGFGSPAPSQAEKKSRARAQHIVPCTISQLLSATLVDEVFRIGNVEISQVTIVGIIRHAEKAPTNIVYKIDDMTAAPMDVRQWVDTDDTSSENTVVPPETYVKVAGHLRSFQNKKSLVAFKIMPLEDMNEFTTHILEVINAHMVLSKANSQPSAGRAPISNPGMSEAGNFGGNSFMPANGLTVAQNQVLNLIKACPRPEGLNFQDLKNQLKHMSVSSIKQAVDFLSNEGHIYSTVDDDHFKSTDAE
Chain of RPA (heterotrimer) (P35244 whole entry, chain 3 of 3, the tested form may be a part): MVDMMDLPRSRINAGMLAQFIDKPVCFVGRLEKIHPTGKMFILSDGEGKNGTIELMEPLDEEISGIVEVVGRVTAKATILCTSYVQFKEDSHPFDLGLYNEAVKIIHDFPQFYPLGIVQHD
Chain of FLAG-Timeless (Q9UNS1 whole entry): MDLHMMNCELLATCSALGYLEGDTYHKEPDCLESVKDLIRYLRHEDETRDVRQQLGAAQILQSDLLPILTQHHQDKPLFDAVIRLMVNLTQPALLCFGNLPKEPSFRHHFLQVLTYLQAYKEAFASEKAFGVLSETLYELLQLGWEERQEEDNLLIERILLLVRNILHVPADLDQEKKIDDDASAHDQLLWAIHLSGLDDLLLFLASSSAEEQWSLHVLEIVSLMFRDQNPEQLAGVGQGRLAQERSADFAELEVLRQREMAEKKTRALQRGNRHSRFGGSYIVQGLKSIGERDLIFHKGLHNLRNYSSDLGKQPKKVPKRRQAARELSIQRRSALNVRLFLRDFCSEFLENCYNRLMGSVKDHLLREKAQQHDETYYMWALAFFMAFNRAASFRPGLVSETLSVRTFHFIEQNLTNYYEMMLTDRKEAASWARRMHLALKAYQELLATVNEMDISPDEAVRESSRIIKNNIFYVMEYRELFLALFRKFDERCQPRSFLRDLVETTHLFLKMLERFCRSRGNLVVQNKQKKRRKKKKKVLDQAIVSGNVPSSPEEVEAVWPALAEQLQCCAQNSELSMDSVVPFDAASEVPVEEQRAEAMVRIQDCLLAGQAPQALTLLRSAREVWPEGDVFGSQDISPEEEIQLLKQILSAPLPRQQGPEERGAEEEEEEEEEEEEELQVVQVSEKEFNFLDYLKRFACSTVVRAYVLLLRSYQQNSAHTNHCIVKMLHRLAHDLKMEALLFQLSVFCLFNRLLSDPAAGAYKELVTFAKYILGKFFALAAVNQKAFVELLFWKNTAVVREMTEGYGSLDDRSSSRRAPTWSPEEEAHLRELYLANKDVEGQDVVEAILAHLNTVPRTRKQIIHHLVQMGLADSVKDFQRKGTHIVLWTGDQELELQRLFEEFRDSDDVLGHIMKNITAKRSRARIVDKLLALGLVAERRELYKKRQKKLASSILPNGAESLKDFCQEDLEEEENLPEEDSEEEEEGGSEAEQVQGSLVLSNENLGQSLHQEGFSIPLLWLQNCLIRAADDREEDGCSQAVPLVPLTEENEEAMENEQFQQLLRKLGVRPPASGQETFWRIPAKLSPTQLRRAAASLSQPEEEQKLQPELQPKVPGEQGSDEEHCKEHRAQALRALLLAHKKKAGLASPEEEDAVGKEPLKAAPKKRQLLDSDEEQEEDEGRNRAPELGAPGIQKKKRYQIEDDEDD
Chain of FLAG-Timeless;Tipin-His (Q9UNS1 whole entry, one chain of several): as the sequence (Q9UNS1 whole entry) above
Chain of FLAG-Claspin (Q9HAW4 whole entry): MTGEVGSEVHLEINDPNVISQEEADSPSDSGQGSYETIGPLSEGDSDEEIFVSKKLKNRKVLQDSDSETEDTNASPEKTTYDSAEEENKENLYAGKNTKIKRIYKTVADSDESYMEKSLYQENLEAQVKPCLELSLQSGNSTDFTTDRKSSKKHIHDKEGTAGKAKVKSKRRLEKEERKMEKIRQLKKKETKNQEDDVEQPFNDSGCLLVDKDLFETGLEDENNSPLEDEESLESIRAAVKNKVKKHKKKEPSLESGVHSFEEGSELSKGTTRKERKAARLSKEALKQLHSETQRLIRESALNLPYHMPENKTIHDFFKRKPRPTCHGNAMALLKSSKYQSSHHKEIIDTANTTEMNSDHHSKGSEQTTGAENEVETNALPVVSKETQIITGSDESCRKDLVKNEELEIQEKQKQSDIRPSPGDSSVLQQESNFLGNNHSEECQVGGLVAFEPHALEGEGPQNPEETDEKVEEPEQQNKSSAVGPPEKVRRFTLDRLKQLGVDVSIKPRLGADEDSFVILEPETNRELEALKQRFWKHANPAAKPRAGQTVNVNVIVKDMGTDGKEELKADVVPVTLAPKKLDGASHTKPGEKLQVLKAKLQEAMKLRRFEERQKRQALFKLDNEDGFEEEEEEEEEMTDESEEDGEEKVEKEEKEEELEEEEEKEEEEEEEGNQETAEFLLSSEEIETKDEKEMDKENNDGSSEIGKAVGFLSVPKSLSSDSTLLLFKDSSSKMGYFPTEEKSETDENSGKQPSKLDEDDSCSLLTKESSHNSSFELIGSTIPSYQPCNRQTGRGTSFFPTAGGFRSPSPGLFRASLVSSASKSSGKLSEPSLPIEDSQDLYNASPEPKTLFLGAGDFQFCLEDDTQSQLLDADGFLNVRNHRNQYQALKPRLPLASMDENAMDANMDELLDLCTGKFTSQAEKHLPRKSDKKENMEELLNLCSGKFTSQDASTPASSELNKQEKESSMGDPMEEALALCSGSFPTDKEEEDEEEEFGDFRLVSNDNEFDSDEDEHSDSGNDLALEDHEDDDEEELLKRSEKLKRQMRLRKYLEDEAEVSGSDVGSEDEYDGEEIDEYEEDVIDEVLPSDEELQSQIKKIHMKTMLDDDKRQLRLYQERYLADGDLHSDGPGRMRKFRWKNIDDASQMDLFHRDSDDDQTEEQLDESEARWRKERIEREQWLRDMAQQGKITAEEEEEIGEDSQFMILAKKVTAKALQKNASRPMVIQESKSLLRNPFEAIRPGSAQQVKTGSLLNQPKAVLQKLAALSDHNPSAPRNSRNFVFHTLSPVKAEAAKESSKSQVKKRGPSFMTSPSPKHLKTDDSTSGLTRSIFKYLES
Chain of MBP-XPA (P23025 whole entry): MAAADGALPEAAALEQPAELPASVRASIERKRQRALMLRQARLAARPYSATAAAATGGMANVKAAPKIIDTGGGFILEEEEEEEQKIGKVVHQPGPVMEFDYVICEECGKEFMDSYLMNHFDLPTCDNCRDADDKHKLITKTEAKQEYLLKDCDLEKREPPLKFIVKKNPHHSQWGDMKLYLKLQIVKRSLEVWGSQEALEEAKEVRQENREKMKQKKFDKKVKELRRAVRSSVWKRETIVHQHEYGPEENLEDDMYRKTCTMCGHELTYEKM

B1: ssDNA 50-mer (Oligo1) (ssDNA)
DNA: GACGCTGCCGAATTCTGGCTTGCTAGGACATCTTTGCCCACGTTGACCCG
binds: RPA (heterotrimer); label: 5'-biotin | FAAP24-His; label: 5'-biotin | His-Chk1; label: 5'-biotin

B2: fork DNA (Oligo1/Oligo2) (mixed)
DNA 1: GACGCTGCCGAATTCTGGCTTGCTAGGACATCTTTGCCCACGTTGACCCG
DNA 2: GCGATAGTCTCTAGACAGCATGTCCTAGCAAGCCAGAATTCGGCAGCGTC
binds: RPA (heterotrimer); [2] | Tipin-His | FLAG-Timeless;Tipin-His | MBP-XPA | FAAP24-His; [2] | FLAG-Claspin | His-Chk1; [2] | FLAG-Timeless | [1] | FLAG-ATRIP
